In publication PMC5988664:

Target: endothelin-converting enzyme 1 (Ece1), monomer (mouse (endogenous in NMuMG and C2C12))
Assay: cross-linking

Sequence of endothelin-converting enzyme 1 (Ece1), monomer (Q4PZA2 whole entry): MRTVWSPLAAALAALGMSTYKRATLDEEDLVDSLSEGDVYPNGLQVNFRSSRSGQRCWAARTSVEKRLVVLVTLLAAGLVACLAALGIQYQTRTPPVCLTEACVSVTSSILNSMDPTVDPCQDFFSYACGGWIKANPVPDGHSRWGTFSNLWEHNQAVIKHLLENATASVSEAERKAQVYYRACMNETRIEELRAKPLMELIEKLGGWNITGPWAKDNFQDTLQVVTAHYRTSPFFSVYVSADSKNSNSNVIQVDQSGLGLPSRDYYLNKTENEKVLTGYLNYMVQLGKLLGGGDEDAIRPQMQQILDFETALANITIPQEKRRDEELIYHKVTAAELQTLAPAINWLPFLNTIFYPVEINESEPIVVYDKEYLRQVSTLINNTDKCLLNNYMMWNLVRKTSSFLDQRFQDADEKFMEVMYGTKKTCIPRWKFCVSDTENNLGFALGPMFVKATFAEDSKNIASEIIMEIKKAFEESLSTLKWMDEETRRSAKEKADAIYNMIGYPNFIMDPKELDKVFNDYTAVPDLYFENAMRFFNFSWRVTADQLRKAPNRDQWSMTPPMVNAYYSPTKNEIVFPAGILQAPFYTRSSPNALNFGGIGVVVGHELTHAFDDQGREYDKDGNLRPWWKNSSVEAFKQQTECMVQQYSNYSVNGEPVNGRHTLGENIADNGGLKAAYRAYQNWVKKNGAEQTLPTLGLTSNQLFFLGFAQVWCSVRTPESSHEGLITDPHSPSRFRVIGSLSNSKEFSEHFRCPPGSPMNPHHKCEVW

- stoichiometry N: 2
Substance: endothelin-converting enzyme 1 (Ece1), monomer
